Assay results published in the DeepSol protein solubility set.

assay: soluble on expression in E. coli; label from the status in PepcDB or PDB records

Sequence | soluble on expression in E. coli
MSLSITRRVRLSVDTCCYEAEIAGILRPQLLKGRMSVREEFDAWAAEGKDRGMEDRHWHTAKHVLARMPVEPGDTVLDLGTGSGYALRALRDTNDAGPCYGLDGSPEMLRNAREYTDDDGIGFLRGDFDALPFATDSIDHVFSMEAFYYASDPPHTLEEIARVLRPGGTANIAVNYYEENVHSHEWQEFIDIEMTRWSADEYREAFREAGLAVAAQDTIPDREVEIPPADTFPTDEFETREAMVERYRELGTLLTVGVATEGHHHHHH | soluble
MSLTISILGARVIDPNSGLDQVTDLHLDGGRIVAIGAAPAGFSASRTIQADGLVAAPGLVDLGVSLREPGYSRKGNIASETRAAVAGGVTSLCCPPQTKPVLDTSAVAELILDRAREAANSKVYPVGALTKGLEGEQLAELVALRDTGCVAFGNGLKEIPNNRTLARALEYAATFDLTVVFHSQDRDLAQGGLAHEGAMASFLGLPGIPESAETVALARNLLLVEQSGVRAHFSQITSARGARLIAQAQALGLPVTADVALYQLILTDESLREFSSLYHVQPPLRTAADRDGLREAVKSGVIQAISSHHQPHERDAKLAPFGATEPGISSVELLLPLAMTLVQDGLLDLPTLLARLSSGPAAALRLPAGELKVGGAADLVLFDPQASTVAGEQWFSRGENCPFIGHCLPGAVRYTLVDGHICHEAEGHHHHHH | soluble
MMLVRSVFRSQLRPSVSGGLQSASCYSSLSAASAEAERTIREGPRNDWSRDEIKSVYDSPLLDLLFHGAQVHRHVHNFREVQQCTLLSIKTGGCSEDCSYCPQSSRYSTGVKAQRLMSKDAVIDAAKKAKEAGSTRFCMGAAWRDTIGRKTNFSQILEYIKEIRGMGMEVCCTLGMIEKQQALELKKAGLTAYNHNLDTSREYYPNVITTRSYDDRLETLSHVRDAGINVCSGGIIGLGEAEEDRIGLLHTLATLPSHPESVPINALLAVKGTPLEDQKPVEIWEMIRMIGTARIVMPKAMVRLSAGRVRFSMSEQALCFLAGANSIFTGEKLLTTPNNDFDADQLMFKTLGLIPKPPSFSEDDSESENCEKVASASH | not soluble
DDFETSLTELEPLEKDAYIVRLVFAGSTTTEPIVSSLSTAYDIKINILEANIKNTKNGTVGFLVLHIPYISSVDFGKFEKELIERQVKMEVLRHG | soluble
LGLERDVSRAVELLERLQRSGELPPQKLQALQRVLQSRFCSAIREVYEQLYDTLDIT | soluble
MLGVVPGIGESIQAYKVAKAAKNLQGMKKALDKAATVATAQGYVSKTKIKIGQTELRVTAATDKQLLKAIGEGRTRQVK | not soluble
MQASDRFNINSQLEHLQAKYVGTGHADLSRFEWAVNIQRDSYASYIGHYPMLSYFAIAENESIGRERYNFMQKMLLPCGLPPEREEE | soluble
GPPGPPGPPGPPGPRGRTGPPGPPGPPGPP | soluble
MSLHDVRVYHVQQPMRVGFGHPAATRTTSESVVLELDISGCVGLGECAPRSYVTGETCVTVCDALRSLPLARIIDELLSESPNDVLYRIKRLGIEAAFDFTAANNVVCIVELAILDWIGKRTRVSLDAMLRNGASLAESSAPIKISQVLDQNLTVDDFLRERGPFHFVKIKAHRDRAKDLETVTEIRRAIGDDTPIVIDANMSWSLIEAVEHVRKLREAGLTMVEEPFSKRSWTELHELRVQTGISIMLDESVSTLDDLRRAIGSDSCDAVNVRVSKCGGVLRSIEMIELAKSFGIQFQIGVQVAECGPLIQAGRLLASLHRDAIAVEGGQADRFFDSMIVSPDLSFDRARSTVPPPAGFGLGLSTSTEISKYLAFGYSRSADEWTATSHYTEAEGHHHHHH | soluble
MGSDKIHHHHHHVPNFLPINTILVPQGAEYKAVCRGLNGVTGSIPTVVAIPVGMKPLLKYLHQGQFLAPKSRVLIMGICGSLSDRYRVGDIVLYQDCIYQGKLLECDRTFTAQLHSSLSEKVSLVKSLTSDRMIWSAAEKLHLGETLAADVVDMEGFTALEFFNVGGVAVTMLRVVSDDCQHDIPDLTSAINSDGSLNPFSLAMAMLRQPLAATRLIRGSLTALKVLEQVTNMLFSGNRPE | not soluble
SETWSVEQVCSWLVEKNLGELVHRFQEEEVSGAALLALNDRMVQQLVKKIGHQAVLMDLIKKYKQNTQGLKSPENPKKAALVMQTEAARDYRDKESSSPARHGEQMPSFYPAENLDNGLIDQRVLKQRRNVKQILARSKALQWTKSYVLPEFPYDVKCMLAEQKCPDHSMRIRIIEFLQADMTKYLEGSLYPSTQQYNDVVNALLQAHPFLDEDGCGFAGV | soluble
MQTLTVVGLGRLGRSLGRLAADSGAYRLLDLMGRRAQPLAEGRDFVGAGRPVSEMRQLAPADLYLLAVPDAAIASCARGLAAAGVAPAGSVVFHASGVGDASLLRPLAEQGVLTASLHPAFSFADPKRAVEGFAGTLCALEGDEQACLRLEAFARALGGRPFRLAPGGKAAYHAGLSVASNFLVALTAMAGQLTARAGVPPELARQLLGGLMRQTLDNALELGPYDALTGPILRGDIGTVERHLEVLADTGLISAYRTLGRQVVELAGERLQEPARQQLLALLYLEHHHHHH | soluble
MGSDKIHHHHHHMQRIAENYDALPRQLKNVATYIEQHRSSVMVDRTSDIAASCGVHPSAVVRFAQRFGFSGFSDLQAVFRQAYTGQGSSSPSYQQRIRKLIDEKPGALSGGSVAREFIAASRGGLEELEAGLDDKQFDAAVKMLQQADNIYVIGVRRSFPVASYIVYALQHTPKRVHLVSGFGGMYREQIRSVKKGDVVIAISFAPYGKETQYCLRVAHHHQARTLVITDSQLSPLARYATTQLYVKEGSAFAFRSLTSTICLCQALFIALAYKLELNVEESKDTGGYDD | not soluble
PGGPEEQWQRAIHERGEAVCPTCNVVTRKTLVGLKKHMEVCQKLQDALKCQHCRKQFKSKAGLNYHTMAEHSAKPSDAEASEGGE | soluble
SKIFSKCELARKLKSMGMDGFHGYSLANWVCMAEYESNFNTQAFNGRNSNGSSDYGIFQLNSKWWCKSNSHSSANACNIMCSKFLDDNIDDDIACAKRVVKDPNGMSAWVAWVKHCKGKDLSKYLASCNL | soluble
MGSDKIHHHHHHMAVITISREMGTGAYQIAREVAKRLKHTLVDGNKIAELAPRYGLDKELLKRVDEKPPVYITAEDRMHAAHLNTIEIIILDCVKQGNVILYGRGAQDLLSDVENILRIRFIAPFEHRVENFSEREWIDPDLARELIRKSDHQRGGFIHFYFNRDWNDSLGYDLTFNTERMSQSAIIESIIAAAKDSRLKEGEERLKQVIDETILAKKVETAFLKSGDIEYIHFRISVSGKVVSFSGHVHSEAEKREAIRLATAVEGVERVEGDLQVLNYKSHKG | not soluble
MATIHPPAYLLDQAKRRFTPSFNNFPGMSLVEHMLLNTKFPEKKLAEPPPGSGLKPVVGDAGLPILGHMIEMLRGGPDYLMFLYKTKGPVVFGDSAVLPGVAALGPDAAQVIYSNRNKDYSQQGWVPVIGPFFHRGLMLLDFEEHMFHRRIMQEAFVRSRLAGYLEQMDRVVSRVVADDWVVNDARFLVYPAMKALTLDIASMVFMGHEPGTDHELVTKVNKAFTITTRAGNAVIRTSVPPFTWWRGLRARELLENYFTARVKERREASGNDLLTVLCQTEDDDGNRFSDADIVNHMIFLMMAAHDTSTSTATTMAYQLAAHPEWQQRCRDESDRHGDGPLDIESLEQLESLDLVMNESIRLVTPVQWAMRQTVRDTELLGYYLPKGTNVIAYPGMNHRLPEIWTDPLTFDPERFTEPRNEHKRHRYAFTPFGGGVHKCIGMVFDQLEIKTILHRLLRRYRLELSRPDYQPRWDYSAMPIPMDGMPIVLRPR | not soluble
MKLLTSPFQGLKWLAPLLADDGSLHIPPQDLIQHKGISSWEVKVIVTRIDFLADQVTGTAIHQLTIDPARPFSGTEVPINITGEGTLLVTMQITAMSEDRPYCNRQYLAADIIAVVPPGVQNKVHNITHPAAPTIQHLSVGGGYTPIRQLVVQRE | not soluble
